B1: NRC3_wobSeed90_DR3_A8C_o1 (dsDNA)
DNA 1: GCCATACCGGGTCAGCTAGGCCAGAGTAGGGACGGCGCGATTGACAGCGTAGAATGAAGG
DNA 2: CCTTCATTCTACGCTGTCAATCGCGCCGTCCCTACTCTGGCCTAGCTGACCCGGTATGGC
B2: NRC3_wobSeed111_DR4_G27T_o1 (dsDNA)
DNA 1: GCCGAACTAGGTCAGAACAGGACAGTTAAGGATGATGCGATTGACAGCGTAGAATGAAGG
DNA 2: CCTTCATTCTACGCTGTCAATCGCATCATCCTTAACTGTCCTGTTCTGACCTAGTTCGGC
B3: NRC3_wobSeed72_DR2_G5A_o1 (dsDNA)
DNA 1: GCTCAAGTAGGTTACGGGGGCATTCAGGGATGAAGAGCGATTGACAGCGTAGAATGAAGG
DNA 2: CCTTCATTCTACGCTGTCAATCGCTCTTCATCCCTGAATGCCCCCGTAACCTACTTGAGC
B4: NRC3_wobSeed124_DR5_T5G_o1 (dsDNA)
DNA 1: GCCCGACTGGGCCATTCAGAGGTCATTGATCATATGGCGATTGACAGCGTAGAATGAAGG
DNA 2: CCTTCATTCTACGCTGTCAATCGCCATATGATCAATGACCTCTGAATGGCCCAGTCGGGC
B5: NRC3_wobSeed86_DR3_A23G_o1 (dsDNA)
DNA 1: GCGCTGCTAGGTCAGGTTGGTCGGCTAACGGGTACGGCGATTGACAGCGTAGAATGAAGG
DNA 2: CCTTCATTCTACGCTGTCAATCGCCGTACCCGTTAGCCGACCAACCTGACCTAGCAGCGC
B6: NRC3_wobSeed41_DR1_G11C_o1 (dsDNA)
DNA 1: GCATATGTAGCTTAAGGGTCATTCAGGTTGGTTCGCGCGATTGACAGCGTAGAATGAAGG
DNA 2: CCTTCATTCTACGCTGTCAATCGCGCGAACCAACCTGAATGACCCTTAAGCTACATATGC
B7: NRC3_wobSeed46_DR1_T26A_o1 (dsDNA)
DNA 1: GCTTACCAAGGTGAAAGGTCGTTGAAGCACGCCTTGGCGATTGACAGCGTAGAATGAAGG
DNA 2: CCTTCATTCTACGCTGTCAATCGCCAAGGCGTGCTTCAACGACCTTTCACCTTGGTAAGC
B8: NRC3_wobSeed46_DR1_T26G_o1 (dsDNA)
DNA 1: GCTTACCAAGGTGAAAGGTCGTTGAGGCACGCCTTGGCGATTGACAGCGTAGAATGAAGG
DNA 2: CCTTCATTCTACGCTGTCAATCGCCAAGGCGTGCCTCAACGACCTTTCACCTTGGTAAGC
B9: NRC3_wobSeed106_DR4_G25C_o1 (dsDNA)
DNA 1: GCCTCGAAAGGTCGGTTGAGGTGACTATACGGATAAGCGATTGACAGCGTAGAATGAAGG
DNA 2: CCTTCATTCTACGCTGTCAATCGCTTATCCGTATAGTCACCTCAACCGACCTTTCGAGGC
B10: NRC3_wobSeed89_DR3_T13A_o1 (dsDNA)
DNA 1: GCCTATGTAGGTAAAGGGGGTCATTCAGTTTGAAAGGCGATTGACAGCGTAGAATGAAGG
DNA 2: CCTTCATTCTACGCTGTCAATCGCCTTTCAAACTGAATGACCCCCTTTACCTACATAGGC
B11: NRC3_wobSeed69_DR2_A7C_o1 (dsDNA)
DNA 1: GCAGTCCAAGTTCACTAGGTAACGTAAGATTCAGCTGCGATTGACAGCGTAGAATGAAGG
DNA 2: CCTTCATTCTACGCTGTCAATCGCAGCTGAATCTTACGTTACCTAGTGAACTTGGACTGC
B12: NRC3_wobSeed69_DR2_A8T_o1 (dsDNA)
DNA 1: GCAGTCATAGTTCACTAGGTAACGTAAGATTCAGCTGCGATTGACAGCGTAGAATGAAGG
DNA 2: CCTTCATTCTACGCTGTCAATCGCAGCTGAATCTTACGTTACCTAGTGAACTATGACTGC
B13: NRC3_wobSeed4_DR0_C13G_o1 (dsDNA)
DNA 1: GCCCTACTGGGCGAAGGTCATTGATCAGTCAAAGCAGCGATTGACAGCGTAGAATGAAGG
DNA 2: CCTTCATTCTACGCTGTCAATCGCTGCTTTGACTGATCAATGACCTTCGCCCAGTAGGGC

Sequence of RARb:RXRa (P10826 whole entry, chain 1 of 2): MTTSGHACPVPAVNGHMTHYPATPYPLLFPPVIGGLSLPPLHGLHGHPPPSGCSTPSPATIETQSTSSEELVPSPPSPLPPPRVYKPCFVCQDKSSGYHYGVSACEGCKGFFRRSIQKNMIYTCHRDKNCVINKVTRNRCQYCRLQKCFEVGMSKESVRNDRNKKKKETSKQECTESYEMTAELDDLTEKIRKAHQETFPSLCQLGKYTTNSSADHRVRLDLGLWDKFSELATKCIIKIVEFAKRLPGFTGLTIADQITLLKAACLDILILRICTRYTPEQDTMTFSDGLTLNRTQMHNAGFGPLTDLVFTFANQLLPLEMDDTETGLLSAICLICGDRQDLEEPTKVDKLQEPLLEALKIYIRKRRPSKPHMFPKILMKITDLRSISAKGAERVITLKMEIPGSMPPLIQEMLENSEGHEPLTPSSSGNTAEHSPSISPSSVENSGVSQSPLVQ
Sequence of RARb:RXRa (P19793 whole entry, chain 2 of 2): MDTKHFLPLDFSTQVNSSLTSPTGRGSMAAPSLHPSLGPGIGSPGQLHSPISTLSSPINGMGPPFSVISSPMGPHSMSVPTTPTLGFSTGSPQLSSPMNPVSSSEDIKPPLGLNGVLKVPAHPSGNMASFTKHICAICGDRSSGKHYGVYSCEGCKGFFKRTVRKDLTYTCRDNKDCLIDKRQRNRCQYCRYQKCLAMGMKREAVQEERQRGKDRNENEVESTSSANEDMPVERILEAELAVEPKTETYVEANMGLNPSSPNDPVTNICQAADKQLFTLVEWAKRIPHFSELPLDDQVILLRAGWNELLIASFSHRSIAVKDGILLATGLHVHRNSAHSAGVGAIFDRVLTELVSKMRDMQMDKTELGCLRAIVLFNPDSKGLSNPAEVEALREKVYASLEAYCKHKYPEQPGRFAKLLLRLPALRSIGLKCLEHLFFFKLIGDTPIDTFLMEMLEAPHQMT

The target of the data set is RARb:RXRa (Homo sapiens, UniProt P10826;P19793 full;full). Kind of data set: no ligand; PBM; 270 nM : 90 nM RXRa; PBS pH 7.4, 2% milk, 0.02% Triton X-100, 1 mM DTT, BSA, 0.4 mg/ml salmon testes DNA. The conditions noted are these: tags: His kept;His cleaved; copies: 1;1; label: surface-attached array probe. In a few lines:
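Probes were double-stranded and carried 34-nt variable regions with direct-repeat seeds, single-nucleotide variants, half-site ablations and random human genomic background sequences, printed on custom Agilent 4×180K protein-binding microarrays. Arrays were incubated 1 h with ligand-free nuclear receptor dimers in PBS pH 7.4, 2% milk, 0.02% Triton X-100, 1 mM DTT, 0.2 mg/mL BSA and 0.4 mg/ml salmon testes DNA. Antibodies against each partner (one per run) detected binding, and scanned fluorescence was regression-normalized. Binding z-scores use the random background probes as reference.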
In the case of B1, the binding signal is 3.04 PBM z-score against 500 random probes.
For B2 the value was 3.03 PBM z-score against 500 random probes.
For B3 the value was 3.05 PBM z-score against 500 random probes.
The same measure for B4: 3.03 PBM z-score against 500 random probes.
For B5, the binding signal is 3.01 PBM z-score against 500 random probes.
The same measure for B6: 3.04 PBM z-score against 500 random probes.
For B7 the value was 3.02 PBM z-score against 500 random probes; for B8, 3.01 PBM z-score against 500 random probes; for B9, 3.02 PBM z-score against 500 random probes.
The same measure for B10: 3.02 PBM z-score against 500 random probes; for B11: 3.03 PBM z-score against 500 random probes; for B12: 3.02 PBM z-score against 500 random probes.
On to B13, for which the binding signal is 3.03 PBM z-score against 500 random probes.

(Values after article PMC6555819, “Comprehensive study of nuclear receptor DNA binding provides a revised framework for understanding receptor specificity”.)
